Data taken from patent publication US20100151486A1, “OSTEOPONTIN FUNCTIONAL EPITOPES, MONOCLONAL ANTIBODIES AGAINST THE EPITOPES AND USES THEREOF” (SHANGHAI NATIONAL ENGINEERING RESEARCH CENTER OF A, priority 2007, published 2010).

Tests used:
human OPN protein = biological target: T1, human OPN protein (Homo sapiens, UniProt P10451); experiment: Western blot of 1A12 against human OPN protein; assay type: binding
T1 construct: made in house; host or cells: Pichia (yeast), culture supernatant
Procedure: 100 ug human OPN and an equal volume of Freund's adjuvant were emulsified, and injected intraperitoneally into BALB/C mice. Boost was given every two weeks at the same dose. […] The mouse spleen lymphocytes were fused with NS-1 cells using the classic PEG method. 96-well plate coated with 10 μg/ml human OPN was used for repeated screening by ELISA method to obtain hybridoma cell line 1A12 which was capable of stably expressing anti-human OPN antibody. The strain of 1A12 was amplified, and administrated to BALB/C mice in 5×10^6 cells/mouse (i.p.). The ascites was collected from the 10th day after the injection. The anti-human OPN monoclonal antibody was purified by affinity chromatography using protein A column.

rabbit cornea = experiment: OPN-induced rabbit corneal neovascularization; assay type: in vivo; conditions: pellet with 200 ng hOPN and 1 μg antibody
Procedure: The Hydron powder was dissolved in anhydrous ethanol under sterile condition to the final concentration of 12% (w/v), and dissolved with agitation under 37° C. to formulate the 12% Hydron cast solution, which was then stored at room temperature. A quota of sucralfate powder formulated in sterile Milli Q water under sterile conditions as a suspension with the final concentration of 100 μg/μl, which was stored at 4° C., and vortexed to homogeneous intermediately before use. Sustained-release pellets were prepared to each containing 200 ng hOPN and 50 μg sucralfate and, for the antibody groups, 1 μg anti-OPN antibodies, and for the control, the irrelevant antibody. The 12% Flydron east solution and the hOPN-sucralfate-PBS blend were mixed as the ratio of 1:1 (volume ratio), vortexed for 1 min. Then 5 μl mixed Hydron-sucralfate-hOPN solution was added onto a sterilized Parafilm surface, dried for about 30 min on a super-clean bench for a complete polymerization. The polymers were then shaped into uniform circular granules with a 2 mm diameter using an eye tweezers. The granules were stored at −20′C. Animals were grouped in the same way as in Experiment II-3, each group consisting of four eyes.
The rabbit was anesthetized at ear edge vein with 3% sodium pentobarbital (1 ml/kg body weight) and on both corneal surfaces with 1% tetracaine. The thickness of the cornea was measured using an ultrasonic cornea thickness gauge. A 3 mm half-depth incision was made at the center of the cornea using an ophthalmic knife, and an undermining tunnel toward the 12 o'clock or 3 o'clock position on the corneoscleral margin was made using a 2 mm-wide scleral tunnel knife, whereby the tunnel lied within the corneal layer with the top of the tunnel about 1 mm distant from the limbus corneae. The Hydron/sucralfate sustained-release pellet was implanted into the top of tunnel using micro-tweezers. The cuts were treated with chlortetracycline eye ointment after the surgery. From Day 1 after the surgery, the double-blinded observer observed the rabbit conical neovascularization under the slit-lamp each day, until the Day 10, The length (VL) and the vascular clock angle (CN, 30°=1CN) of the longest vessel were measured, and the area of neovascularization was calculated according to the following formula:
Area (mm^2)=0.2×π×VL (mm)×CN (mm)

[1] = relative to irrelevant antibody group, P<0,01

T1 sequence (P10451 17-314): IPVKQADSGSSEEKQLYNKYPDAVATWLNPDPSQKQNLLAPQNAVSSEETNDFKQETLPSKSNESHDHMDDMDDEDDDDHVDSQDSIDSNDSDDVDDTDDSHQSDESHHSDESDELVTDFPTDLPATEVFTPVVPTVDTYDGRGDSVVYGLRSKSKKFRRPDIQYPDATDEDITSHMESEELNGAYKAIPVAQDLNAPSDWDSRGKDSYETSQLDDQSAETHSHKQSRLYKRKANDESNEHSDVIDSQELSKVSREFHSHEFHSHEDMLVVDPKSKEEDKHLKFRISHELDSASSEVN

B1: 1A12: murine anti-hOPN mAb; VH SEQ ID NO: 4, VL SEQ ID NO: 6; from hybridoma 1A12 (antibody, V domains shown)
VH: QVQLEQSGPELVKPGASVKMSCKSSGYTFTTYVMHWVKQKPGQGLEWIGYINPYNDGSKYNEKFKGKATLTSDKSSNTAYMELSSLTSEDSAVYYCASHYGGSPAYWGQGTLVTVSA
VL: DILMTQTPLSLPVSLGDQASISCRSSQSLVHSNGNTYLHWYLQKPGQSPKLLIYKVSNRFSGVPDRFSGSGSGTDFTLKISRVEAEDLGVYFCSQSTHVPWTFGGGTKLEIKR
modifications: amino acid sequence of the heavy chain variable region in 1A12; amino acid sequence of the light chain variable region in 1A12
notes: murine anti-hOPN mAb; from hybridoma 1A12
Human OPN protein
  binding to the human OPN protein: specifically bound
Rabbit cornea
  corneal neovascularization relative to the OPN group: significantly reduced
Rabbit cornea; [1]
  area of neovascularization: significantly shrunk
  length of the newly generated blood vessels: significantly reduced
